Some results are limits rather than exact numbers.

A word on the Kd: it is the concentration at which binding is half-saturated.

The target of series [1] is T1, His-NinH N18A (Bacteriophage lambda (cI857 Sam7), UniProt P03771 1-68, A15T;N18A).
T1 sequence: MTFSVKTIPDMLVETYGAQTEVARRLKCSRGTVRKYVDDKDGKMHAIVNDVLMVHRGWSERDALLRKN
Nature of the series: MST; intermediate effect; MST: PBS pH 7.4 + 0.05% Tween-20, 22 C; anisotropy: 6.7 mM Tris-HCl pH 8.0, 3.3 nM (so in the source) sodium acetate, 2 mM EDTA, 25 C; EMSA (32P): 50 mM Tris-HCl pH 8.0, 5 mM EDTA, 1 mM DTT, 5% glycerol, 100 ug/ml BSA, on ice; EMSA (Cy520): PBS pH 7.4, room temp. The note with it: protein: recombinant; tags: N-His6; chain copies: 2; label: 5'-Cy5 on strand 1; blunt. In general terms: Mobility shift assays separate free from complexed probe on a gel.

Series [2] deals with T2, His-NinH wt (Bacteriophage lambda (cI857 Sam7), UniProt P03771 1-68, A15T).
T2 sequence: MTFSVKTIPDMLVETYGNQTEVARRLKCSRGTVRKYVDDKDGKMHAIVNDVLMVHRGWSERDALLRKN
Put plainly: EMSA; sub-micromolar; PBS; MST: PBS pH 7.4 + 0.05% Tween-20, 22 C; anisotropy: 6.7 mM Tris-HCl pH 8.0, 3.3 nM (so in the source) sodium acetate, 2 mM EDTA, 25 C; EMSA (32P): 50 mM Tris-HCl pH 8.0, 5 mM EDTA, 1 mM DTT, 5% glycerol, 100 ug/ml BSA, on ice; EMSA (Cy520): PBS pH 7.4, room temp. The settings on record: protein: recombinant; tags: N-His6; chain copies: 2; label: 5'-Cy5 on strand 1; blunt.

Series [3] deals with T3, His-NinH T32A (Bacteriophage lambda (cI857 Sam7), UniProt P03771 1-68, A15T;T32A).
T3 sequence: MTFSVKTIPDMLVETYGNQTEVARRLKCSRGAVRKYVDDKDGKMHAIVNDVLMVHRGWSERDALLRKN
Put plainly: MST; MST: PBS pH 7.4 + 0.05% Tween-20, 22 C; anisotropy: 6.7 mM Tris-HCl pH 8.0, 3.3 nM (so in the source) sodium acetate, 2 mM EDTA, 25 C; EMSA (32P): 50 mM Tris-HCl pH 8.0, 5 mM EDTA, 1 mM DTT, 5% glycerol, 100 ug/ml BSA, on ice; EMSA (Cy520): PBS pH 7.4, room temp. The note with it: protein: recombinant; tags: N-His6; chain copies: 2; label: 5'-Cy5 on strand 1; blunt.

Series [4] has as its target T4, His-NinH R56A (Bacteriophage lambda (cI857 Sam7), UniProt P03771 1-68, A15T;R56A).
T4 sequence: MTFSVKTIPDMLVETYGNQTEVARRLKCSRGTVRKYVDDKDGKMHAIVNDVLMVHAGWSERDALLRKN
The series is described as above. The settings on record: protein: recombinant; tags: N-His6; chain copies: 2; label: 5'-Cy5 on strand 1; blunt.

The target of series [5] is T5, His-NinH S29A (Bacteriophage lambda (cI857 Sam7), UniProt P03771 1-68, A15T;S29A).
T5 sequence: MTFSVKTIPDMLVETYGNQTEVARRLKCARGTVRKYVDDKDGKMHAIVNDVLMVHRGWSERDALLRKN
The description is as above. The settings on record: protein: recombinant; tags: N-His6; chain copies: 2; label: 5'-Cy5 on strand 1; blunt.

Series [6] concerns the target T6, His-NinH K35A (Bacteriophage lambda (cI857 Sam7), UniProt P03771 1-68, A15T;K35A).
T6 sequence: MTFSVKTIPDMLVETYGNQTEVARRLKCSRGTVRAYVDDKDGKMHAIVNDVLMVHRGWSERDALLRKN
The description is as above. The settings on record: protein: recombinant; tags: N-His6; chain copies: 2; label: 5'-Cy5 on strand 1; blunt.

For series [7], the target named is T2, His-NinH wt. The series is described as above. The settings on record: protein: recombinant; tags: N-His6; chain copies: 2; label: 5'-Cy5 on strand 1; blunt.
Series [8] deals with T7, His-NinH H45A (Bacteriophage lambda (cI857 Sam7), UniProt P03771 1-68, A15T;H45A).
T7 sequence: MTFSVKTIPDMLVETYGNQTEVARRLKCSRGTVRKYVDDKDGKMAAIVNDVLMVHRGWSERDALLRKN
Nature of the series: MST; retained significant binding; MST: PBS pH 7.4 + 0.05% Tween-20, 22 C; anisotropy: 6.7 mM Tris-HCl pH 8.0, 3.3 nM (so in the source) sodium acetate, 2 mM EDTA, 25 C; EMSA (32P): 50 mM Tris-HCl pH 8.0, 5 mM EDTA, 1 mM DTT, 5% glycerol, 100 ug/ml BSA, on ice; EMSA (Cy520): PBS pH 7.4, room temp. The note with it: protein: recombinant; tags: N-His6; label: 5'-Cy5 on strand 1; blunt.

Series [9] concerns the target T2, His-NinH wt. Put plainly: EMSA; single complex; MST: PBS pH 7.4 + 0.05% Tween-20, 22 C; anisotropy: 6.7 mM Tris-HCl pH 8.0, 3.3 nM (so in the source) sodium acetate, 2 mM EDTA, 25 C; EMSA (32P): 50 mM Tris-HCl pH 8.0, 5 mM EDTA, 1 mM DTT, 5% glycerol, 100 ug/ml BSA, on ice; EMSA (Cy520): PBS pH 7.4, room temp. The settings on record: protein: recombinant; tags: N-His6; chain copies: 2; label: 5'-32P on strand 1; fork 1:2, 31 bp duplex.

For series [10], the target named is T2, His-NinH wt. Put plainly: EMSA; assembles on each arm; MST: PBS pH 7.4 + 0.05% Tween-20, 22 C; anisotropy: 6.7 mM Tris-HCl pH 8.0, 3.3 nM (so in the source) sodium acetate, 2 mM EDTA, 25 C; EMSA (32P): 50 mM Tris-HCl pH 8.0, 5 mM EDTA, 1 mM DTT, 5% glycerol, 100 ug/ml BSA, on ice; EMSA (Cy520): PBS pH 7.4, room temp. The settings on record: protein: recombinant; tags: N-His6; chain copies: 2; label: 5'-32P on strand 1; four-way junction, 11 bp homologous core.

B1: Cy520 (NinH consensus) (dsDNA)
DNA 1: ACCGATCAAGAATTGTGCAT
DNA 2: ATGCACAATTCTTGATCGGT
Regarding B1, the Kd in series [1] was over 0.22 µM; in series [2], under 1 µM; in series [5], 0.013 ± 0.0027 µM; in [7], 0.0056 ± 0.0015 µM; in series [8] it was over 0.35 µM. Further, the binding result in series [3], in series [4] and in series [6] was “no binding” each time.

B2: Forked duplex FD (structured_DNA)
DNA 1: GGCGACGTGATCACCAGATGATTGCTAGGCATGCTTTCCGCAAGAGAAGC
DNA 2: GGCTTCTCTTGCGGAAAGCATGCCTAGCAATCCTGTCAGCTGCATGGAAC
On to B2, for which the binding result in series [9] is listed as “binds”.

B3: Holliday junction HJ (structured_DNA)
DNA 1: GGCGACGTGATCACCAGATGATTGCTAGGCATGCTTTCCGCAAGAGAAGC
DNA 2: GGCTTCTCTTGCGGAAAGCATGCCTAGCAATCCTGTCAGCTGCATGGAAC
DNA 3: GGTTCCATGCAGCTGACAGGATTGCTAGGCTCAAGGCGAACTGCTAACGG
DNA 4: ACCGTTAGCAGTTCGCCTTGAGCCTAGCAATCATCTGGTGATCACGTCGC
As to B3, in series [10], the binding result is reported as “binds”.
